The values below come from patent US20070172470.

The target in series [1] is GST-CTDo.
In series [2] the target is Ser 2 phosphopeptide (28 aa CTD peptide, 4 heptad repeats).
For series [3], the target named is Ser 5 phosphopeptide (28 aa CTD peptide, 4 heptad repeats).
In series [4] the target is T1, RAP74, P35269.
T1 chain: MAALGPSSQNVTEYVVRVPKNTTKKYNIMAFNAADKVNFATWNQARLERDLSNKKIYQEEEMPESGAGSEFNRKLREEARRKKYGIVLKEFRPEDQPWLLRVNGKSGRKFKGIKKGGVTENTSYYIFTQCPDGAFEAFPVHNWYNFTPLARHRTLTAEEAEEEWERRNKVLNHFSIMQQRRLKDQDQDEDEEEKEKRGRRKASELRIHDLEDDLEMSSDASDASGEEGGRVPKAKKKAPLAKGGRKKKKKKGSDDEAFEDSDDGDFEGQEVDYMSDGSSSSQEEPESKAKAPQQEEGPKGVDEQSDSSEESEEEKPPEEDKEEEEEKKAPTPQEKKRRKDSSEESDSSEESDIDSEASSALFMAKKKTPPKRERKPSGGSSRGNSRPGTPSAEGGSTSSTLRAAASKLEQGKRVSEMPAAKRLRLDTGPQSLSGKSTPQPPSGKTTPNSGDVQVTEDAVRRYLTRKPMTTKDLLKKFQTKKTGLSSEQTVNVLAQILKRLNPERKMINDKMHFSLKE

B1: FCP1 (protein)
chain: MEVPAAGRVPAEGAPTAAVAEVRCPGPAPLRLLEWRVAAGAAVRIGSVLAVFEAAASAQSSGASQSRVASGGCVRPARPERRLRSERAGVVRELCAQPGQVVAPGAVLVRLEGCSHPVVMKGLCAECGQDLTQLQSKNGKQQVPLSTATVSMVHSVPELMVSSEQAEQLGREDQQRLHRNRKLVLMVDLDQTLIHTTEQHCQQMSNKGIFHFQLGRGEPMLHTRLRPHCKDFLEKIAKLYELHVFTFGSRLYAHTIAGFLDPEKKLFSHRILSRDECIDPFSKTGNLRNLFPCGDSMVCIIDDREDVWKFAPNLITVKKYVYFQGTGDMNAPPGSRESQTRKKVNHSRGTEVSEPSPPVRDPEGVTQAPGVEPSNGLEKPARELNGSEAATPRDSPRPGKPDERDIWPPAQAPTSSQELAGAPEPQGSCAQGGRVAPGQRPAQGATGTDLDFDLSSDSESSSESEGTKSSSSASDGESEGKRGRQKPKAAPEGAGALAQGSSLEPGRPAAPSLPGEAEPGAHAPDKEPELGGQEEGERDGLCGLGNGCADRKEAETESQNSELSGVTAGESLDQSMEEEEEEDTDEDDHLIYLEEILVRVHTDYYAKYDRYLNKEIEEAPDIRKIVPELKSKVLADVAIIFSGLHPTNFPIEKTREHYHATALGAKILTRLVLSPDAPDRATHLIAARAGTEKVLQAQECGHLHVVNPDWLWSCLERWDKVEEQLFPLRDDHTKAQRENSPAAFPDREGVPPTALFHPMPVLPKAQPGPEVRIYDSNTGKLIRTGARGPPAPSSSLPIRQEPSSFRAVPPPQPQMFGEELPDAQDGEQPGPSRRKRQPSMSETMPLYTLCKEDLESMDKEVDDILGEGSDDSDSEKRRPEEQEEEPQPRKPGTRRERTLGAPASSERSAAGGRGPRGHKRKLNEEDAASESSRESSNEDEGSSSEADEMAKALEAELNDLM
Turning to B1, in series [1], the “CTD phosphatase assay (mobility shift of GST-CTDo to GST-CTDa)” value is listed as “FCP1 does not dephosphorylate rCTDo even at concentrations 100 times higher than that required to dephosphorylate RNAP IIO”. Also, the “phosphate released from phosphopeptide (malachite green)” value is “Mammalian FCP1, within a comparable concentration range, did not act on either phosphopeptide” in series [2] and “Mammalian FCP1, within a comparable concentration range, did not act on either phosphopeptide” in series [3].

B2: GST-SCP1 214 (protein)
chain: MMGRPCLLTAGRPCLWRRMAPSLRQTPVQYLLPEAKAQDSDKICVVIDLDETLVHSSFKPVNNADFIIPVEIDGVVHQVYVLKRPHVDEFLQRMGELFECVLFTASLAKYADPVADLLDKWGAFRARLFRESCVFHRGNYVKDLSRLGRDLRRVLILDNSPASYVFHPDNAVPVASWFDNMSDTELHDLLPFFEQLSRVDDVYSVLRQPRPGS
Regarding B2, the “CTD phosphatase assay (mobility shift of GST-CTDo to GST-CTDa)” value in series [1] is “SCP1 dephosphorylates rCTDo and RNAP IIO with comparable efficiency”. The “phosphate released from phosphopeptide (malachite green)” value in series [2] and in series [3] was “SCP1 preferentially dephosphorylates the Ser 5 phosphopeptide compared to the Ser 2 phosphopeptide” throughout.

B3: SCP1 261 (protein)
chain: MDSSAVITQISKEEARGPLRGKGDQKSAASQKPRSRGILHSLFCCVCRDDGEALPAHSGAPLLVEENGAIPKTPVQYLLPEAKAQDSDKICVVIDLDETLVHSSFKPVNNADFIIPVEIDGVVHQVYVLKRPHVDEFLQRMGELFECVLFTASLAKYADPVADLLDKWGAFRARLFRESCVFHRGNYVKDLSRLGRDLRRVLILDNSPASYVFHPDNAVPVASWFDNMSDTELHDLLPFFEQLSRVDDVYSVLRQPRPGS
Turning to B3, the “CTD phosphatase activity (dephosphorylation of RNAP IIO prepared by TFIIH), with and without 7 pmol RAP74” value in series [4] was “RAP74 shifted the dose response curve for SCP1 catalyzed dephosphorylation of RNAP IIO to an approximately 10-fold lower concentration”.
